Assays:
[1] = system: Caco-2:HT29-MTX E12 coculture tubules; experiment: Barrier integrity monitored by co-applied TRITC-dextran (TD) during peptide transport; assay type: cell-based, human; conditions: INS chips with and without TAT
Experimental: Here, the cells were counterstained with Hoechst (H1399, Thermo Fischer, 10 μg ml^−1) and incubated for 1 h at 37°C, 5% CO2, washed with PBS and images were acquired using SD confocal microscopy with 488 nm laser and 520/28 BrightLine HC filters for detecting FITC-labelled TAT and the 405 nm laser and 442/42 BrightLine HC filter for acquiring Hoechst. The cell tubules exposed to TAT/INS (24 µM/50 μM, IS1-AF647-1, Nanocs) were stained with above mentioned cellular dyes and CellMask-green (C37608, Thermo Fisher, 1:500) for 30 min on ice after 3 h of incubation. The transport of TAT was tracked over 2 h, acquiring time lapse images every 30 s using epi-fluorescence microscopy (see Imaging modalities). […] To simultaneously monitor the barrier integrity TD (0.5 mg ml^−1) was co-applied to the chips and measured in parallel to TAT. For the quantification of both TAT, INS and TD transport across the cell barrier, calibration curves were established. […]
Next we used the platform to study the barrier transport kinetics of TAT. We performed whole-chip real-time live cell imaging, to quantify the concentration of TAT transported across the coculture cell layer and reaching the receiving channel (Figure 6B). […] Both the FITC and TRITC channels were recorded for each tubular system every 30 s for a total of 2.5 h. […]

[2] = system: Caco-2:HT29-MTX E12 coculture tubules; experiment: Image-based real-time quantification of TAT and TAT/INS transport across coculture tubules; conditions: 50 µM INS, whether or not TAT (24 µM) was present, over 3 h, n = 3
Experimental: We performed whole-chip real-time live cell imaging, to quantify the concentration of TAT transported across the coculture cell layer and reaching the receiving channel (Figure 6B). […] Both the FITC and TRITC channels were recorded for each tubular system every 30 s for a total of 2.5 h. […] A calibration experiment where known concentrations of TAT or TD were added to a chip without cells allowed us to convert the measured intensities to actual concentration in μM and mg mL^−1 respectively (Supplementary Figure S5). […]

[3] = system: Caco-2:HT29-MTX E12 coculture tubules; experiment: Live cell imaging of cellular uptake and intracellular localization in coculture tubules; assay type: cell-based, human
Experimental: Spinning disc (SD) confocal microscopy was performed on a Nikon Ti2 inverted microscope equipped with a Yokogawa CSU-W1 module and a Photometrics Prime 95B sCMOS camera was used for all experiments (excl. Image-based TAT transport). The set-up includes four excitation lasers 405/488/561/638 nm with 442/42, 520/28 BrightLine HC filters and 600/50 ET, 700/75 ET bandpass filters. For this work, a set of CFI Plan Apochromat Lambda objectives were used: ×4/0.2, 20x/0.75, 60x/1.4 and 100x/1.45. For image-based transport experiments, epi-fluorescence microscopy was performed using a Nikon Eclipse Ti2 microscope equipped with an LED source (CoolLED), a dual-band filter cube (AHF, Excitation 455–489 nm, 557–588 nm; Emission 506–542 nm, 605–660 nm) and a Photometrics Evolve 512 electron-multiplying charge-coupled device camera was used (10x N.A. 0.30).
Here, the cells were counterstained with Hoechst (H1399, Thermo Fischer, 10 μg ml^−1) and incubated for 1 h at 37°C, 5% CO2, washed with PBS and images were acquired using SD confocal microscopy with 488 nm laser and 520/28 BrightLine HC filters for detecting FITC-labelled TAT and the 405 nm laser and 442/42 BrightLine HC filter for acquiring Hoechst. […] The transport of TAT was tracked over 2 h, acquiring time lapse images every 30 s using epi-fluorescence microscopy (see Imaging modalities). […]

Substance: INS: AlexaFluor647-labeled insulin (IS1-AF647-1, Nanocs)
- Barrier integrity [1]: not compromised significantly
- INS transport across the cell barrier [2]: no INS transport across the cell barrier
- Intracellular localization of INS ([3]; INS and INS/TAT, 3 h, 100x, indicating endosomal uptake): localized inside the cytosol in punctual patterns
- Cellular internalization of INS ([3]; after 3 h, live cell imaging, with and without TAT): internalized into the enterocyte cell layer even without TAT

— PMC9500407, “Quantifying the transport of biologics across intestinal barrier models in real-time by fluorescent imaging” (Frontiers in Bioengineering and Biotechnology, 2022)
